The subject of data set [1] is HeLa Kyoto. The data set can be described thus: melting temperature (median over replicates), in situ; higher = more thermally stable.
Data set [2] has as its system HeLa Kyoto. The experiment in a line: solubility change mitosis vs G1/S (difference of NP-40 vs SDS log2 ratios) (log2 ratio difference); higher = more soluble in mitosis.
For data set [3], the system named is HeLa Kyoto. The data set can be described thus: solubility in G1/S (NP-40 vs SDS abundance) (log2 ratio); higher = more soluble. The conditions noted are these: cell cycle stage: G1/S.
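Wherever melting temperature (median over replicates), in situ is given: HeLa Kyoto cells synchronized by double thymidine or nocodazole block, proteins quantified by TMT10plex mass spectrometry, three independent biological replicates.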
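Wherever solubility change mitosis vs G1/S (difference of NP-40 vs SDS log2 ratios) is given: synchronized HeLa Kyoto cells (double thymidine block for G1/S, nocodazole release for mitosis), protein amounts in NP-40 versus SDS lysates quantified by mass spectrometry, three biological replicates.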
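Wherever solubility in G1/S (NP-40 vs SDS abundance) is given: HeLa Kyoto cells arrested at G1/S by double thymidine block, proteins quantified by TMT10plex mass spectrometry in mild NP-40 versus SDS extracts, three biological replicates.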

Chain of WWC2 (chain, as listed by the source): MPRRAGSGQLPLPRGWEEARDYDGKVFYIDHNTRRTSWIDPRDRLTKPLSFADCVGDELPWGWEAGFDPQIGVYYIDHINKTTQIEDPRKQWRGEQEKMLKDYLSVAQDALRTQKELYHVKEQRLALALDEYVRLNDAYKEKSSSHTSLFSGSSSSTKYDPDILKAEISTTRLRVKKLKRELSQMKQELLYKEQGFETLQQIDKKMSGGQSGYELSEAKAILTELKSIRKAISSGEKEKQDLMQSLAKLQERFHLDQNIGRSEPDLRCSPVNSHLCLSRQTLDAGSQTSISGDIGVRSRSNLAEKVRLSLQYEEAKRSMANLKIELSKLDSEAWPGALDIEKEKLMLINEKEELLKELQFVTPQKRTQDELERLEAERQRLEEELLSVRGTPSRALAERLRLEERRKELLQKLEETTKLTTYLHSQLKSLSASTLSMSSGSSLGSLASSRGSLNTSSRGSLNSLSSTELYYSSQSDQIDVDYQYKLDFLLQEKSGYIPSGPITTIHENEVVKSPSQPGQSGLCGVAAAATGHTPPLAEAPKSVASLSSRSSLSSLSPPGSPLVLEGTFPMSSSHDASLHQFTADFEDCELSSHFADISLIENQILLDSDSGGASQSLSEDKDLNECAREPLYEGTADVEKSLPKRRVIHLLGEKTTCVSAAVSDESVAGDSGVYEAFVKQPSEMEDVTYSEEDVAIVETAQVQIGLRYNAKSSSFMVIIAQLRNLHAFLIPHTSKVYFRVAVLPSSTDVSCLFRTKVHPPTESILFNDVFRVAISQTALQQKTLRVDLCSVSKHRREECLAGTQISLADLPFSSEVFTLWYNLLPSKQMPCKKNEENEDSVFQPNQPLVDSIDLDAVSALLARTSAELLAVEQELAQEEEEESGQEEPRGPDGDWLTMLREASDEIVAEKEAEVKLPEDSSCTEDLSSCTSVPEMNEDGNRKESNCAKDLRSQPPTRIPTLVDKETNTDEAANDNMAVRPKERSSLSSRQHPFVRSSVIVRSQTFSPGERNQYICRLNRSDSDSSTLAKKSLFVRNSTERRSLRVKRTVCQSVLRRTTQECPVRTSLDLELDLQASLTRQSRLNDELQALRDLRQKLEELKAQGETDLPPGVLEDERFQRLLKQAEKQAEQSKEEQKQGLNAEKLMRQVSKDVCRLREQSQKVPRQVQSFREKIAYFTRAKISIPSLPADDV

Take “MDTSSVGGLELTDQTPVLLGSTAMATSLTNVGNSFSGPANPLVSRSNKFQNSSVEDDDDVVFIEPVQPPPPSVPVVADQRTITFTSSKNEELQGNDSKITPSSKELASQKGSVSETIVIDDEEDMETNQGQEKNSSNFIERRPPETKNRTNDVDFSTSSFSRSKVNAGMGNSGITTEPDSEIQIANVTTLETGVSSVNDGQLENTDGRDMNLMITHVTSLQNTNLGDVSNGLQSSNFGVNIQTYTPSLTSQTKTGVGPFNPGRMNVAGDVFQNGESATHHNPDSWISQSASFPRNQKQPGVDSLSPVASLPKQIFQPSVQQQPTKPVKVTCANCKKPLQKGQTAYQRKGSAHLFCSTTCLSSFSHKPAPKKLCVMCKKDITTMKGTIVAQVDSSESFQEFCSTSCLSLYEDKQNPTKGALNKSRCTICGKLTEIRHEVSFKNMTHKLCSDHCFNRYRMANGLIMNCCEQCGEYLPSKGAGNNVLVIDGQQKRFCCQSCVSEYKQVGSHPSFLKEVRDHMQDSFLMQPEKYGKLTTCTGCRTQCRFFDMTQCIGPNGYMEPYCSTACMNSHKTKYAKSQSLGIICHFCKRNSLPQYQATMPDGKLYNFCNSSCVAKFQALSMQSSPNGQFVAPSDIQLKCNYCKNSFCSKPEILEWENKVHQFCSKTCSDDYKKLHCIVTYCEYCQEEKTLHETVNFSGVKRPFCSEGCKLLYKQDFARRLGLRCVTCNYCSQLCKKGATKELDGVVRDFCSEDCCKKFQDWYYKAARCDCCKSQGTLKERVQWRGEMKHFCDQHCLLRFYCQQNEPNMTTQKGPENLHYDQGCQTSRTKMTGSAPPPSPTPNKEMKNKAVLCKPLTMTKATYCKPHMQTKSCQTDDTWRTEYVPVPIPVPVYIPVPMHMYSQNIPVPTTVPVPVPVPVFLPAPLDSSEKIPAAIEELKSKVSSDALDTELLTMTDMMSEDEGKTETTNINSVIIETDIIGSDLLKNSDPETQSSMPDVPYEPDLDIEIDFPRAAEELDMENEFLLPPVFGEEYEEQPRPRSKKKGAKRKAVSGYQSHDDSSDNSECSFPFKYTYGVNAWKHWVKTRQLDEDLLVLDELKSSKSVKLKEDLLSHTTAELNYGLAHFVNEIRRPNGENYAPDSIYYLCLGIQEYLCGSNRKDNIFIDPGYQTFEQELNKILRSWQPSILPDGSIFSRVEEDYLWRIKQLGSHSPVALLNTLFYFNTKYFGLKTVEQHLRLSFGTVFRHWKKNPLTMENKACLRYQVSSLCGTDNEDKITTGKRKHEDDEPVFEQIENTANPSRCPVKMFECYLSKSPQNLNQRMDVFYLQPECSSSTDSPVWYTSTSLDRNTLENMLVRVLLVKDIYDKDNYELDEDTD [ZMYM2]”: the figures for the melting temperature in data set [1] (cell cycle stage: G1/S) and in data set [1] (cell cycle stage: mitosis) were 49.3 °C and 49.7 °C, respectively. The “solubility change mitosis (log2)” value in data set [2] was found to be 0.00298. Besides, the “solubility in G1/S (log2)” value in data set [3] was -0.229.
As for “MQTSSSRSVHLSEWQKNYFAITSGICTGPKADAYRAQILRIQYAWANSEISQVCATKLFKKYAEKYSAIIDSDNVESGLNNYAENILTLAGSQQTDSDKWQSGLSINNVFKMSSVQKMMQAGKKFKDSLLEPALASVVIHKEATVFDLPKFSVCGSSQESDSLPNSAHDRDRTQDFPESNRLKLLQNAQPPMVTNTARTCPTFSAPVGESATAKFHVTPLFGNVKKENHSSAKENIGLNVFLSNQSCFPAACENPQRKSFYGSGTIDALSNPILNKACSKTEDNGPKEDSSLPTFKTAKEQLWVDQQKKYHQPQRASGSSYGGVKKSLGASRSRGILGKFVPPIPKQDGGEQNGGMQCKPYGAGPTEPAHPVDERLKNLEPKMIELIMNEIMDHGPPVNWEDIAGVEFAKATIKEIVVWPMLRPDIFTGLRGPPKGILLFGPPGTGKTLIGKCIASQSGATFFSISASSLTSKWVGEGEKMVRALFAVARCQQPAVIFIDEIDSLLSQRGDGEHESSRRIKTEFLVQLDGATTSSEDRILVVGATNRPQEIDEAARRRLVKRLYIPLPEASARKQIVINLMSKEQCCLSEEEIEQIVQQSDAFSGADMTQLCREASLGPIRSLQTADIATITPDQVRPIAYIDFENAFRTVRPSVSPKDLELYENWNKTFGCGK [FIGNL1]”, the melting temperature in data set [1] (cell cycle stage: mitosis) amounted to 48.6 °C. Also, the “solubility change mitosis (log2)” value in data set [2] was -0.219. Moreover, the “solubility in G1/S (log2)” value in data set [3] is -0.0197.
Regarding “MTTSQKHRDFVAEPMGEKPVGSLAGIGEVLGKKLEERGFDKAYVVLGQFLVLKKDEDLFREWLKDTCGANAKQSRDCFGCLREWCDAFL [BANF1]”, the melting temperature in data set [1] (cell cycle stage: mitosis) came out at 52.2 °C. Further, the “solubility change mitosis (log2)” value in data set [2] is 1.93. The “solubility in G1/S (log2)” value in data set [3] was -1.48.
The matching figures for “MDPGKDKEGVPQPSGPPARKKFVIPLDEDEVPPGVAKPLFRSTQSLPTVDTSAQAAPQTYAEYAISQPLEGAGATCPTGSEPLAGETPNQALKPGAKSNSIIVSPRQRGNPVLKFVRNVPWEFGDVIPDYVLGQSTCALFLSLRYHNLHPDYIHGRLQSLGKNFALRVLLVQVDVKDPQQALKELAKMCILADCTLILAWSPEEAGRYLETYKAYEQKPADLLMEKLEQDFVSRVTECLTTVKSVNKTDSQTLLTTFGSLEQLIAASREDLALCPGLGPQKARRLFDVLHEPFLKVP [ERCC1]”: 51 °C, 0.0087 and 0.296.
In the case of “MALVRGAEPAAGPSRWLPTHVQVTVLRARGLRGKSSGAGSTSDAYTVIQVGREKYSTSVVEKTHGCPEWREECSFELPPGALDGLLRAQEADAGPAPWAASSAAACELVLTTMHRSLIGVDKFLGQATVALDEVFGAGRAQHTQWYKLHSKPGKKEKERGEIEVTIQFTRNNLSASMFDLSMKDKPRSPFSKIRDKMKGKKKYDLESASAILPSSAIEDPDLGSLGKMGKAKGFFLRNKLRKSSLTQSNTSLGSDSTLSSASGSLAYQGPGAELLTRSPSRSSWLSTEGGRDSAQSPKLFTHKRTYSDEANQMRVAPPRALLDLQGHLDAASRSSLCVNGSHIYNEEPQGPVRHRSSISGSLPSSGSLQAVSSRFSEEGPRSTDDTWPRGSRSNSSSEAVLGQEELSAQAKVLAPGASHPGEEEGARLPEGKPVQVATPIVASSEAVAEKEGARKEERKPRMGLFHHHHQGLSRSELGRRSSLGEKGGPILGASPHHSSSGEEKAKSSWFGLREAKDPTQKPSPHPVKPLSAAPVEGSPDRKQSRSSLSIALSSGLEKLKTVTSGSIQPVTQAPQAGQMVDTKRLKDSAVLDQSAKYYHLTHDELISLLLQRERELSQRDEHVQELESYIDRLLVRIMETSPTLLQIPPGPPK [RAB11FIP5]”, the figures for the melting temperature in data set [1] (cell cycle stage: G1/S) and in data set [1] (cell cycle stage: mitosis) were 50.1 °C and 49.3 °C, respectively. Also, the “solubility change mitosis (log2)” value in data set [2] was -0.217. The “solubility in G1/S (log2)” value in data set [3] turned out to be 0.0739.
As to “MAERPEDLNLPNAVITRIIKEALPDGVNISKEARSAISRAASVFVLYATSCANNFAMKGKRKTLNASDVLSAMEEMEFQRFVTPLKEALEAYRREQKGKKEASEQKKKDKDKKTDSEEQDKSRDEDNDEDEERLEEEEQNEEEEVDN [POLE3]”, the melting temperature in data set [1] (cell cycle stage: G1/S) came to 49.2 °C. Further, the “solubility change mitosis (log2)” value in data set [2] is 0.5. Also, the “solubility in G1/S (log2)” value in data set [3] was 0.357.
As for “MAQKRPACTLKPECVQQLLVCSQEAKKSAYCPYSHFPVGAALLTQEGRIFKGCNIENACYPLGICAERTAIQKAVSEGYKDFRAIAIASDMQDDFISPCGACRQVMREFGTNWPVYMTKPDGTYIVMTVQELLPSSFGPEDLQKTQ [CDA]”, the figures for the melting temperature in data set [1] (cell cycle stage: G1/S) and in data set [1] (cell cycle stage: mitosis) were 54.4 °C and 54 °C, respectively. Moreover, the “solubility change mitosis (log2)” value in data set [2] is -0.0534. Further, the “solubility in G1/S (log2)” value in data set [3] was found to be 0.37.
The substance “MTTTTTFKGVDPNSRNSSRVLRPPGGGSNFSLGFDEPTEQPVRKNKMASNIFGTPEENQASWAKSAGAKSSGGREDLESSGLQRRNSSEASSGDFLDLKGEGDIHENVDTDLPGSLGQSEEKPVPAAPVPSPVAPAPVPSRRNPPGGKSSLVLG [HN1]” showed a melting temperature in data set [1] (cell cycle stage: G1/S) of 52.1 °C. In data set [2], the “solubility change mitosis (log2)” value came out at 0.268. For the same substance, the “solubility in G1/S (log2)” value in data set [3] is -0.248.
In the case of “MATGDLKRSLRNLEQVLRLLNYPEEVDCVGLIKGDPAASLPIISYSFTSYSPYVTELIMESNVELIAKNDLRFIDAVYKLLRDQFNYKPILTKKQFIQCGFAEWKIQIVCDILNCVMKKHKELSSLQKIPSQQRKKISSGKSEPPLGNEKISAEAVGVDISGRFMTSGKKKAVVIRHLYNEDNVDISEDTLSPITDVNEAVDVSDLNATEIKMPEVKVPEIKAEQQDVNVNPEITALQTMLAECQENLKKLTSIEKRLDCLEQKMKGKVMVDENTWTNLLSRVTLLETEMLLSKKNDEFIEFNEVSEDYASCSDMDLLNPHRKSEVERPASIPLSSGYSTASSDSTPRASTVNYCGLNEISEETTIQKMERMKKMFEETAELLKCPNHYL [CEP44]”, the melting temperature amounted to 48.6 °C in data set [1] (cell cycle stage: G1/S) and 49.3 °C in data set [1] (cell cycle stage: mitosis). Also, in data set [2], the “solubility change mitosis (log2)” value was -0.26. In data set [3], the “solubility in G1/S (log2)” value is 0.259.
In the same order, the values of WWC2 are 51.1 °C, 49.9 °C, -0.0226 and -0.102.
“MIEDTMTLLSLLGRIMRYFLLRPETLFLLCISLALWSYFFHTDEVKTIVKSSRDAVKMVKGKVAEIMQNDRLGGLDVLEAEFSKTWEFKNHNVAVYSIQGRRDHMEDRFEVLTDLANKTHPSIFGIFDGHGGETAAEYVKSRLPEALKQHLQDYEKDKENSVLSYQTILEQQILSIDREMLEKLTVSYDEAGTTCLIALLSDKDLTVANVGDSRGVLCDKDGNAIPLSHDHKPYQLKERKRIKRAGGFISFNGSWRVQGILAMSRSLGDYPLKNLNVVIPDPDILTFDLDKLQPEFMILASDGLWDAFSNEEAVRFIKERLDEPHFGAKSIVLQSFYRGCPDNITVMVVKFRNSSKTEEQ [PPM1L]” returned a melting temperature in data set [1] (cell cycle stage: mitosis) of 53.9 °C. In addition, in data set [2], the “solubility change mitosis (log2)” value is -0.142. Besides, in data set [3], the “solubility in G1/S (log2)” value was -0.0862.
Take “MASRGKTETSKLKQNLEEQLDRLMQQLQDLEECREELDTDEYEETKKETLEQLSEFNDSLKKIMSGNMTLVDELSGMQLAIQAAISQAFKTPEVIRLFAKKQPGQLRTRLAEMDRDLMVGKLERDLYTQQKVEILTALRKLGEKLTADDEAFLSANAGAILSQFEKVSTDLGSGDKILALASFEVEKTKK [LZIC]”: the melting temperature in data set [1] (cell cycle stage: G1/S) is 54.1 °C; in data set [1] (cell cycle stage: mitosis), 53.2 °C. For the same substance, the “solubility change mitosis (log2)” value in data set [2] was determined as 0.544. In addition, the “solubility in G1/S (log2)” value in data set [3] worked out at 0.367.
On to “MSAHSMLCERIAIAKELIKRAESLSRSRKGGIEGGAKLCSKLKAELKFLQKVEAGKVAIKESHLQSTNLTHLRAIVESAENLEEVVSVLHVFGYTDTLGEKQTLVVDVVANGGHTWVKAIGRKAEALHNIWLGRGQYGDKSIIEQAEDFLQASHQQPVQYSNPHIIFAFYNSVSSPMAEKLKEMGISVRGDIVAVNALLDHPEELQPSESESDDEGPELLQVTRVDRENILASVAFPTEIKVDVCKRVNLDITTLITYVSALSYGGCHFIFKEKVLTEQAEQERKEQVLPQLEAFMKDKELFACESAVKDFQSILDTLGGPGERERATVLIKRINVVPDQPSERALRLVASSKINSRSLTIFGTGDTLKAITMTANSGFVRAANNQGVKFSVFIHQPRALTESKEALATPLPKDYTTDSEH [C7ORF25]”, for which the melting temperature in data set [1] (cell cycle stage: G1/S) turned out to be 50.1 °C; in data set [1] (cell cycle stage: mitosis) it was 50 °C. Besides, the “solubility change mitosis (log2)” value in data set [2] came to 0.0164. For the same substance, in data set [3], the “solubility in G1/S (log2)” value was found to be 0.0643.
In the same order, the values of “MADEATRRVVSEIPVLKTNAGPRDRELWVQRLKEEYQSLIRYVENNKNADNDWFRLESNKEGTRWFGKCWYIHDLLKYEFDIEFDIPITYPTTAPEIAVPELDGKTAKMYRGGKICLTDHFKPLWARNVPKFGLAHLMALGLGPWLAVEIPDLIQKGVIQHKEKCNQ [UFC1]” are 53.3 °C, 52.9 °C, 0.23 and 0.134.

Values taken from the supplement of paper PMC5998384.
